Source: patent publication US10488411B2, “Inflammasome activation in myelodysplastic syndromes” (H. LEE MOFFITT CANCER CENTER AND RESEARCH INSTITUTE, INC., priority 2015, dated 2019)

What was measured:
MDS BM-MNC = test: Pyroptosis flow cytometry panel (a-caspase-1+/annexin-V+) in MDS BM-MNC incubated with autologous BM plasma; type: cell-based, human
Protocol: Pyroptosis flow cytometry panel. For human samples, treated and untreated BM-MNC were incubated overnight in IMDM, supplemented with 10% autologous BM plasma. Subsequently, cells were harvested, washed twice in 1×PBS, and stained with LIVE/DEAD Violet fluorescent reactive dye according to the manufacturer's protocol (Life Technologies). Cells were resuspended in 1×PBS with 2% BSA, and incubated at room temperature for 15 minutes to block non-specific binding. After washing, cells were stained with 30× FAM-FLICA® Caspase-1 and Caspase-3/7 solution at a ratio of 1:30 for 2 hours at 37° C. Cells were washed and stained for cell surface receptors using CD38:PE-CF594, CD33:BV711, CD34:APC (BD Biosciences), and CD71:PE-Cyanine7 (eBioscience). All antibodies were diluted 1:20, and cells were stained for 30 minutes at 4° C. Cells were washed, resuspended in 1× binding buffer, and stained with Annexin-V:Cy5.5 at a dilution of 1:20 for 15 minutes at room temperature (BD Biosciences). 1× binding buffer was added to a final volume of 400 μL. Sample acquisitions were carried out using a BD LSR II flow cytometer and FACSDiva software (BD Biosciences). Calibration of the flow cytometer was carried out prior to each experiment using Rainbow Mid-Range Fluorescent Particles (BD Biosciences). To establish fluorescence compensation settings, ArC Amine Reactive Compensation Beads were used for LIVE/DEAD Violet staining (Life Technologies), and BD CompBead Plus Anti-Mouse Ig κ/Negative Control (BSA) Compensation Plus Particles were used for surface receptor conjugates (BD Biosciences). Data were analyzed using FlowJo 9.7.5 software (FlowJo, LLC, Ashland, Oreg.).

[1] = system: pyroptosis-related gene expression; test: qPCR of pyroptosis-related gene expression in lower-risk MDS BM-MNC; type: cell-based, human; settings: lower-risk MDS BM-MNC (n=5), 24 hours, versus autologous BM plasma alone
Protocol: Real-time quantitative PCR. RNA was isolated from BM-MNC using the RNeasy Mini Kit (Qiagen). cDNA was produced using the iScript cDNA Synthesis Kit (Bio-Rad). Sequences for primers can be found in Table 1. GAPDH mRNA was used for transcript normalization. cDNA was amplified using the iQ SYBR Green Supermix and the CFX96 Real-Time PCR Detection System (Bio-Rad). PCR conditions were as follows: 10 minutes at 95° C., followed by 40 cycles of amplification (15 seconds at 95° C. and 1 minute at 60° C.). Relative gene expression was calculated using the −2^ΔΔCt method.

B1: CD33-IgG1: S100A9 high-affinity chimeric (CD33-IgG1) decoy receptor (protein)
chain: DPNFWLQVQESVTVQEGLCVLVPCTFFHPIPYYDKNSPVHGYWFREGAIISRDSPVATNKLDQEVQEETQGRFRLLGDPSRNNCSLSIVDARRRDNGSYFFRMERGSTKYSYKSPQLSVHVTDLTHRPKILIPGTLEPGHSKNLTCSVSWACEQGTPPIFSWLSAAPTSLGPRTTHSSVLIITPRPQDHGTNLTCQVKFAGAGVTTERTIQLNVTYVPQNPTTGIFPGDGSGKQETRAGVVH
modifications: left off: a dimerising Fc or GST
reduction of fraction of pyroptotic cells, maximum lineage-specific change, CD33+ cells (MDS BM-MNC; CD33+ immature myeloids, 0.5 μg CD33-IgG1 or 0.1 μM IRAK4 inhibitor, 24 hours, autologous BM plasma): 68% | reduction of fraction of pyroptotic cells, maximum lineage-specific change, CD71+ cells (MDS BM-MNC; CD71+ erythroids, 0.5 μg CD33-IgG1 or 0.1 μM IRAK4 inhibitor, 24 hours, autologous BM plasma): 64% | fraction of pyroptotic cells across all lineages studied (MDS BM-MNC; MDS BM-MNC (n=4) with autologous BM plasma, 0.5 μg CD33-IgG1 or 0.1 μM IRAK4 inhibitor, 24 hours): marked reduction | reduction of fraction of pyroptotic cells, maximum lineage-specific change, progenitor cells (MDS BM-MNC; progenitor cells (CD34+CD38+), 0.5 μg CD33-IgG1 or 0.1 μM IRAK4 inhibitor, 24 hours, autologous BM plasma): 23% | MDSC fraction (MDS BM-MNC; short-term treatment of MDS BM-MNC): significantly reduced | reduction of fraction of pyroptotic cells, maximum lineage-specific change, stem cells (MDS BM-MNC; stem cells (CD34+CD38-), 0.5 μg CD33-IgG1 or 0.1 μM IRAK4 inhibitor, 24 hours, autologous BM plasma): 44% | CASP3 expression [1]: markedly reduced | expression of CASP1 [1]: reduced | expression of IL-1β [1]: reduced | expression of IL-18 [1]: reduced | expression of NLRP3 [1]: reduced
